Source: patent EP4585618A1 (Jiangsu Hengrui Pharmaceuticals Co., Ltd., dated 2025)

Experiments:
[1] = target: T1, His-tagged ILT4 protein extracellular domain: ILT4-His (human, UniProt Q8N423 22-460); test: ELISA, coated ILT4-His 1 µg/mL; Assay 1
T1 construct: Expressed in 293 cells; also called human ILT4-His protein

[2] = target: T2, LILRA5-His (Acro, LI5-H82E1) (human, UniProt A6NI73 42-268); test: ELISA, coated protein 1 µg/mL
T2 construct: Bought protein. 'Human' stands at the head of the list of coated proteins; not shown: His tag
T2 sequence (A6NI73 42-268 limits assumed): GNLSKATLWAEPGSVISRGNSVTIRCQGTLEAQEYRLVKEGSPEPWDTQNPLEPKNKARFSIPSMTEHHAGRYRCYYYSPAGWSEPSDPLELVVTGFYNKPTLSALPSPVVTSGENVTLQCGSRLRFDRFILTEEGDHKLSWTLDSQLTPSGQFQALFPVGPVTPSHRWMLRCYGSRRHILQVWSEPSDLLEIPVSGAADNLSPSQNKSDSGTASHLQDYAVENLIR

[3] = target: T3, LILRA6-His (Acro, LI6-H82E2) (human, UniProt Q6PI73 24-447); test: ELISA, coated protein 1 µg/mL
T3 construct: Bought protein. 'Human' stands at the head of the list of coated proteins; not shown: His tag
T3 sequence (Q6PI73 24-447 limits assumed): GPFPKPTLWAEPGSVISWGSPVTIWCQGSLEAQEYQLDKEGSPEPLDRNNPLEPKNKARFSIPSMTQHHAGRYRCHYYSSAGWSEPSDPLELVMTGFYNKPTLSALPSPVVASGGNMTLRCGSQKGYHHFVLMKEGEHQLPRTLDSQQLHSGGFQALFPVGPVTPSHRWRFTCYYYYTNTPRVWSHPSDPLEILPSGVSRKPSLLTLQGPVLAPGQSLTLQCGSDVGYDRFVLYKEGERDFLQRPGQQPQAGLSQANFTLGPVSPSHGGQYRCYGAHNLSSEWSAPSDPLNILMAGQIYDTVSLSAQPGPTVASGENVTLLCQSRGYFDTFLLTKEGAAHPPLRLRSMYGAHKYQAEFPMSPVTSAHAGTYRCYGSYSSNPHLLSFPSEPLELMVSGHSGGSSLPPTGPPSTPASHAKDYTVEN

[4] = target: T4, His-tagged ILT2 protein extracellular domain: ILT2-His (human, UniProt Q8NHL6 24-461); test: ELISA, coated protein 1 µg/mL
T4 construct: The entry is the whole construct, with the His tag; also called human ILT2 protein
T4 sequence (Q8NHL6 other isoform, or with tags, fused parts or gaps): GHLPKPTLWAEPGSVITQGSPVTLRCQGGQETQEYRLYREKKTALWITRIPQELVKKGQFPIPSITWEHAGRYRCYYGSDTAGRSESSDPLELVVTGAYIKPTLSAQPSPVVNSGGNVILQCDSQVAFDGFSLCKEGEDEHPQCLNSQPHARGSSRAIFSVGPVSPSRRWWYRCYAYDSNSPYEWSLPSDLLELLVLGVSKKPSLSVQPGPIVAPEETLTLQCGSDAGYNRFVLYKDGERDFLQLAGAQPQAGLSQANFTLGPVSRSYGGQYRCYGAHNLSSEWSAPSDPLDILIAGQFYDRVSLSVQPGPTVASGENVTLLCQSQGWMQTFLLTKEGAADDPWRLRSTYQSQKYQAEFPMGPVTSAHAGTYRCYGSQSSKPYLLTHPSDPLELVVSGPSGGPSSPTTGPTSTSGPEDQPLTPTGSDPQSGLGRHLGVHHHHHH

[5] = target: T5, His-tagged ILT3 protein extracellular domain: ILT3-His (human, UniProt Q8NHJ6 22-259); test: ELISA, coated protein 1 µg/mL
T5 construct: The entry is the whole construct, with the His tag

[6] = target: T6, LILRB5-His (Acro, CDC-H5220) (human, UniProt O75023 24-458, limits assumed); test: ELISA, coated protein 1 µg/mL
T6 construct: Bought protein. 'Human' stands at the head of the list of coated proteins; not shown: His tag
T6 sequence (O75023 24-458 limits assumed): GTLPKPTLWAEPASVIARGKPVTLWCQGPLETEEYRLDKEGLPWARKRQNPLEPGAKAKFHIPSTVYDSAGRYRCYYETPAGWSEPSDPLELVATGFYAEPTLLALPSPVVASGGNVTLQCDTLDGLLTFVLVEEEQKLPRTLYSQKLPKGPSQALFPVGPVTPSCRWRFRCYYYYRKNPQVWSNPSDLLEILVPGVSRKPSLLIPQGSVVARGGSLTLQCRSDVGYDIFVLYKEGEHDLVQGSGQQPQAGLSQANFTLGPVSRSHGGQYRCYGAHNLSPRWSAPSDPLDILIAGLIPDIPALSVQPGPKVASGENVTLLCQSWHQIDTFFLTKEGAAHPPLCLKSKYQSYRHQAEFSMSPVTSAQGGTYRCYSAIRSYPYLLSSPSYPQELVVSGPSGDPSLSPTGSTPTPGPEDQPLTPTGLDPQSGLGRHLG

[7] = target: T7, LILRA1-His (Acro, LI1-H82E8) (human, UniProt O75019 17-461); test: ELISA, coated protein 1 µg/mL
T7 construct: Bought protein. 'Human' stands at the head of the list of coated proteins; not shown: His tag
T7 sequence (O75019 17-461 limits assumed): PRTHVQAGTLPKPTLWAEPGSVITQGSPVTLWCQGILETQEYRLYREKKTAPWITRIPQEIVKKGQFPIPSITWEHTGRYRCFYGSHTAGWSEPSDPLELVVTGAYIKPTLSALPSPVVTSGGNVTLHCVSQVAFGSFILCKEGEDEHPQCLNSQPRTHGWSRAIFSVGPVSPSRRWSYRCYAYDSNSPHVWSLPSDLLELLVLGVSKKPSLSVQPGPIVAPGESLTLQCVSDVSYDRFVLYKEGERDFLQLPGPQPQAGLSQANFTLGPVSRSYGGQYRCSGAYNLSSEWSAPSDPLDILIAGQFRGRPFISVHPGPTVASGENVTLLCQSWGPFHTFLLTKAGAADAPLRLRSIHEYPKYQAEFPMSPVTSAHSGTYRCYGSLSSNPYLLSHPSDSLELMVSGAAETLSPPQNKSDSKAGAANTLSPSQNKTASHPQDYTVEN

[8] = target: T8, LILRA2-His (Acro, LI2-H82E9) (human, UniProt Q8N149 24-449); test: ELISA, coated protein 1 µg/mL
T8 construct: Bought protein. 'Human' stands at the head of the list of coated proteins; not shown: His tag
T8 sequence (Q8N149 24-449 limits assumed): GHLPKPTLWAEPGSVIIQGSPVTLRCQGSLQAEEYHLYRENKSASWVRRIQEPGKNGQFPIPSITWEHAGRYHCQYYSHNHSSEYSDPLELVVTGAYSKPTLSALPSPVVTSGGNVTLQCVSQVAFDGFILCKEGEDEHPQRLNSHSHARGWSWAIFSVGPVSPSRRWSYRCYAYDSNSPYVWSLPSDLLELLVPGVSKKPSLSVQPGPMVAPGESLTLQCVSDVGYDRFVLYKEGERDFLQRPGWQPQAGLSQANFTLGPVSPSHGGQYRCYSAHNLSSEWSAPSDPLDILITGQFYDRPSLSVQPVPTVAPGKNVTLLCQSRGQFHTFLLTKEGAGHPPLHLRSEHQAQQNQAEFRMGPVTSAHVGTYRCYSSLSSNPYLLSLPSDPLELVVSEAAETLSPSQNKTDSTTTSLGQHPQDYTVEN

[9] = target: T9, LILRA3-His (Acro, LI3-H82E0) (human, UniProt Q8N6C8 24-439); test: ELISA, coated protein 1 µg/mL
T9 construct: Bought protein. 'Human' stands at the head of the list of coated proteins; not shown: His tag
T9 sequence (Q8N6C8 24-439 limits assumed): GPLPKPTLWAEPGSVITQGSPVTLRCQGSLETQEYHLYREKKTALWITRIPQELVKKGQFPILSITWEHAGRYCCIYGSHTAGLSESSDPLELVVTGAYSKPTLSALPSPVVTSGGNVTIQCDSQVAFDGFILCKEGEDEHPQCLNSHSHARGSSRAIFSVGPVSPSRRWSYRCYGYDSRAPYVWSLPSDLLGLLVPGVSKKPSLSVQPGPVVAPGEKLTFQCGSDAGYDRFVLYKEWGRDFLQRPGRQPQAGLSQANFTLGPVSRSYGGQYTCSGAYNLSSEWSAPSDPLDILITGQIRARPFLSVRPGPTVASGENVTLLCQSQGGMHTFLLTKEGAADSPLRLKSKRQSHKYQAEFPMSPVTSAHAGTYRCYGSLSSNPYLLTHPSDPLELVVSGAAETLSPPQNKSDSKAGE

[10] = target: T10, LILRA4-His (SinoBiological, 16058-H08H) (human, UniProt P59901 24-446); test: ELISA, coated protein 1 µg/mL
T10 construct: Bought protein. 'Human' stands at the head of the list of coated proteins; not shown: His tag
T10 sequence (P59901 24-446 limits assumed): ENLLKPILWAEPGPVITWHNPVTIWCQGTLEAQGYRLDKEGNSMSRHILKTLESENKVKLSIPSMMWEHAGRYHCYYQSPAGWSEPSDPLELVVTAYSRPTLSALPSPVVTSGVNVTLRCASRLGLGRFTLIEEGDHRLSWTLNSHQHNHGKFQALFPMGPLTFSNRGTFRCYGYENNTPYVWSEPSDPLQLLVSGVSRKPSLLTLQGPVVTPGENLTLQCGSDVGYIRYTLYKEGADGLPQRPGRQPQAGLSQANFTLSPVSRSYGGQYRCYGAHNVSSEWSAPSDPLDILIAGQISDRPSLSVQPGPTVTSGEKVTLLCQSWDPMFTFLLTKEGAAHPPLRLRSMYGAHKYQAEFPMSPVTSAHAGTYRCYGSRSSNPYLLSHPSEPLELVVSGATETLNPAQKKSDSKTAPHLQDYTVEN

[11] = target: T1, His-tagged ILT4 protein extracellular …; test: ELISA, coated protein 1 µg/mL, antibody 10 µg/mL
[12] = target: T2, LILRA5-His (Acro, LI5-H82E1); test: ELISA, coated protein 1 µg/mL, antibody 10 µg/mL
[13] = target: T3, LILRA6-His (Acro, LI6-H82E2); test: ELISA, coated protein 1 µg/mL, antibody 10 µg/mL
[14] = target: T4, His-tagged ILT2 protein extracellular …; test: ELISA, coated protein 1 µg/mL, antibody 10 µg/mL
[15] = target: T5, His-tagged ILT3 protein extracellular …; test: ELISA, coated protein 1 µg/mL, antibody 10 µg/mL
[16] = target: T6, LILRB5-His (Acro, CDC-H5220); test: ELISA, coated protein 1 µg/mL, antibody 10 µg/mL
[17] = target: T7, LILRA1-His (Acro, LI1-H82E8); test: ELISA, coated protein 1 µg/mL, antibody 10 µg/mL
[18] = target: T8, LILRA2-His (Acro, LI2-H82E9); test: ELISA, coated protein 1 µg/mL, antibody 10 µg/mL
[19] = target: T9, LILRA3-His (Acro, LI3-H82E0); test: ELISA, coated protein 1 µg/mL, antibody 10 µg/mL
[20] = target: T10, LILRA4-His (SinoBiological, 16058-H08H); test: ELISA, coated protein 1 µg/mL, antibody 10 µg/mL
[21] = target: T1, His-tagged ILT4 protein extracellular …; test: SPR (Biacore), antibody captured on Protein A chip, ILT4-His as analyte, 1:1 model
[22] = target: T11, full-length human ILT4 protein overexpressed on cells (human, UniProt Q8N423 22-597); test: flow cytometry competition on CHO-S/ILT4 cells; competitor CF647-labelled HLA-G tetramer; Assay 2
T11 construct: also called CHO-S/ILT4; ILT4 stably transfected cell strain
T11 sequence (Q8N423 other isoform, or with tags, fused parts or gaps limits assumed): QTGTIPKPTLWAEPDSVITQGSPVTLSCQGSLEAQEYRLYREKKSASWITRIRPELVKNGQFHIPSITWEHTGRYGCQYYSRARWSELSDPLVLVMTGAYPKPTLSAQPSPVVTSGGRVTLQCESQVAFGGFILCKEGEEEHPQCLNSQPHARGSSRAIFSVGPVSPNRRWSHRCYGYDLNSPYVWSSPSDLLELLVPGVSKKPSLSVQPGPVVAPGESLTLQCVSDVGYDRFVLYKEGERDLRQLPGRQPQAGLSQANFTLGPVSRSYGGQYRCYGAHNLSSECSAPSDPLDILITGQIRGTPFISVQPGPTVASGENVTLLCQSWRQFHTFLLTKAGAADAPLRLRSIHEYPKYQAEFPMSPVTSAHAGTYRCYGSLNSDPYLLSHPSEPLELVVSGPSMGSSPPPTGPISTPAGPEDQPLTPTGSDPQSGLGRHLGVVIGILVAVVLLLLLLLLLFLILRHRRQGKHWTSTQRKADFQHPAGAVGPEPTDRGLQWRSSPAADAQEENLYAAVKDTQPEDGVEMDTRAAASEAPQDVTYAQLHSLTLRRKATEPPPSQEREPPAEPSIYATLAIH

[23] = target: T11, full-length human ILT4 protein …; test: flow cytometry competition on CHO-S/ILT4 cells; competitor CF647-labelled HLA-G tetramer; Assay 3
[24] = target: T11, full-length human ILT4 protein …; test: flow cytometry competition on CHO-S/ILT4 cells; competitor CF647-labelled HLA-G tetramer; Assay 4
[25] = target: T1, His-tagged ILT4 protein extracellular …; test: ELISA, coated ILT4-His 1 µg/mL; Assay 3

T1 sequence (Q8N423 other isoform, or with tags, fused parts or gaps limits assumed): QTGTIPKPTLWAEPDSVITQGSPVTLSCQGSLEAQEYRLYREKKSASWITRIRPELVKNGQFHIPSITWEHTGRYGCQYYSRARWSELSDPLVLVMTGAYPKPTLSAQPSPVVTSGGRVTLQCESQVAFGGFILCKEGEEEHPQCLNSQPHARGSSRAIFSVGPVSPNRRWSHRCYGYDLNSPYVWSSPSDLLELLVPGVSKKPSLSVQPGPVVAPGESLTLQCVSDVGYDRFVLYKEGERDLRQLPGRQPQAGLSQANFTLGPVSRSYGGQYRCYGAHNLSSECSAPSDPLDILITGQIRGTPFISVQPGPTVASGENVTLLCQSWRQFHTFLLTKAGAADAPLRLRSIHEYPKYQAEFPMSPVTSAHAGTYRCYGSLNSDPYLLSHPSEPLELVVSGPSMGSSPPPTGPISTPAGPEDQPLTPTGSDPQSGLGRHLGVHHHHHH

Binder	binding result [2]	binding result [3]	binding result [4]	binding result [5]	binding result [6]	binding result [7]	binding result [8]	binding result [9]	binding result [10]	absorbance at 450 nm [11] [absorbance at 450 nm]	absorbance at 450 nm [12] [absorbance at 450 nm]	absorbance at 450 nm [13] [absorbance at 450 nm]	absorbance at 450 nm [14] [absorbance at 450 nm]	absorbance at 450 nm [15] [absorbance at 450 nm]	absorbance at 450 nm [16] [absorbance at 450 nm]	absorbance at 450 nm [17] [absorbance at 450 nm]	absorbance at 450 nm [18] [absorbance at 450 nm]	absorbance at 450 nm [19] [absorbance at 450 nm]	absorbance at 450 nm [20] [absorbance at 450 nm]	Kd [21] [nM]	other results
chimeric antibody ChP1-C4 (antibody, human IgG4 S228P, kappa, F234A L235A, V domains shown, Murine variable regions with hIgG4(LALA) and CL constant regions; also called M P1-C4) VH: QVQLKQSGAELVRPGASVKLSCKASGYSFTDYYINWVKQRPGQGLEWIARIYPGNDNTYYNEKFKDKATLTADSSSSTAYMQLSSLTSEDSAVYFCTRSQDGYYEENAMDYWGQGTSVTVSS VL: DIQMTQSPASLSVSVGETVTITCRASENIYSNLAWYQQRQGKSPQLLVYAATNLADGVPFRFSGSGSGTQYSLKINSLQSEDFGSYYCQQFWGSPHTFGGGTKLEIKR	–	–	–	–	–	–	–	–	–	–	–	–	–	–	–	–	–	–	–	–	EC50 [1]: 0.0643 µg/mL
humanized antibody huP2-E8 (antibody, human IgG4 S228P, kappa, F234A L235A, V domains shown, Full chains; also called P2-E8H4L1) VH: EVQLVESGGGLVKPGGSLRLSCAASGFTFSDYGIHWVRQAPGKGLEWVAYISSGSSIHNYADTVKGRFTISRDNAKNSLYLQMNSLRAEDTAVYYCARGPNYYGSSYLLVYWGQGTLVTVSS VL: DIQMTQSPSSLSASVGDRVTITCKASQDVNIAVAWYQQKPGKAPKLLIYSASYRYTGVPSRFSGSGSGTDFTFTISSLQPEDIATYYCQQHYNIPWTFGGGTKVEIKR	no binding (tested: 10 µg/mL)	no binding (tested: 10 µg/mL)	no binding (tested: 10 µg/mL)	no binding (tested: 10 µg/mL)	no binding (tested: 10 µg/mL)	no binding (tested: 10 µg/mL)	no binding (tested: 10 µg/mL)	no binding (tested: 10 µg/mL)	no binding (tested: 10 µg/mL)	0.954	0.0467	0.0461	0.0569	0.063	0.0489	0.0483	0.0516	0.0467	0.0504	0.839	koff [21]: 0.000186 s⁻¹; kon [21]: 222000 M⁻¹ s⁻¹
chimeric antibody ChP1-D7 (antibody, human IgG4 S228P, kappa, F234A L235A, V domains shown, Murine variable regions with hIgG4(LALA) and CL constant regions; also called M P1-D7) VH: QIQLVQSGPDLKKPGETVKISCKASGYTFTTYGMNWVKQAPGKALKWMGWINTYSGVPTYADDFKGRFAFSLETSATTAYLQINNLKNEDTATYFCARRTDYDGYVMDCWGQGTSVTVSS VL: DIVMSQSPSSLAVSIGEKVTMSCKSSQSLFYSGNQKNYLAWYLQKPGQSPKLLLYWASTRESGVPDRFTGSGSGTDFTLTISSVMAEDLAVYYCQQYFSYPPTFGGGTKLEIKR	–	–	–	–	–	–	–	–	–	–	–	–	–	–	–	–	–	–	–	–	EC50 [25]: 0.0292 µg/mL

Continued, in another order:

binding result [2]	binding result [3]	binding result [4]	binding result [5]	binding result [6]	binding result [7]	binding result [8]	binding result [9]	binding result [10]	absorbance at 450 nm [11] [absorbance at 450 nm]	absorbance at 450 nm [12] [absorbance at 450 nm]	absorbance at 450 nm [13] [absorbance at 450 nm]	absorbance at 450 nm [14] [absorbance at 450 nm]	absorbance at 450 nm [15] [absorbance at 450 nm]	absorbance at 450 nm [16] [absorbance at 450 nm]	absorbance at 450 nm [17] [absorbance at 450 nm]	absorbance at 450 nm [18] [absorbance at 450 nm]	absorbance at 450 nm [19] [absorbance at 450 nm]	absorbance at 450 nm [20] [absorbance at 450 nm]	Kd [21] [nM]	Binder	other results
no binding (tested: 10 µg/mL)	no binding (tested: 10 µg/mL)	no binding (tested: 10 µg/mL)	no binding (tested: 10 µg/mL)	no binding (tested: 10 µg/mL)	no binding (tested: 10 µg/mL)	no binding (tested: 10 µg/mL)	no binding (tested: 10 µg/mL)	no binding (tested: 10 µg/mL)	1.77	0.0441	0.0449	0.0541	0.0564	0.0533	0.0457	0.0759	0.0461	0.0674	0.109	humanized antibody huP2-G9 (antibody, human IgG1, kappa, L234A L235A, V domains shown, Full chains; also called P2-G9H1L2) VH: EVQLQESGPGLVKPSQTLSLTCTVSGSSITSGYYWNWIRQHPGKGLEWIGYLSYDGSNNYNPSLKNLVTISRDTSKNQFSLKLSSVTAADTAVYYCAREGAHYSGTLSWFAYWGQGTLVTVSS VL: DIQMTQSPSSLSASVGDRVTITCRASENIYSNLAWYQQKPGKSPKLLVYAATNLADGVPSRFSGSGSGTDYTLTISSLQPEDFATYYCQHFWDTPYTFGGGTKVEIKR	koff [21]: 0.000109 s⁻¹; kon [21]: 999000 M⁻¹ s⁻¹; IC50 [22]: 0.085 µg/mL
no binding (tested: 10 µg/mL)	no binding (tested: 10 µg/mL)	no binding (tested: 10 µg/mL)	no binding (tested: 10 µg/mL)	no binding (tested: 10 µg/mL)	no binding (tested: 10 µg/mL)	no binding (tested: 10 µg/mL)	no binding (tested: 10 µg/mL)	no binding (tested: 10 µg/mL)	2.69	0.0598	0.0606	0.0621	0.149	0.0563	0.0535	0.0565	0.0613	0.0605	0.0543	humanized antibody huP2-C6 (antibody, human IgG1, kappa, L234A L235A, V domains shown, Full chains; also called P2-C6H7L1) VH: EVQLVQSGAEVKKPGASVKVSCKASGYTFTDYYIHWVRQAPGQGLEWMGYIYPDTGYSGYNQKFKGRVTMTVDKSTSTAYMELRSLRSDDTAVYYCTRRGDYSGVHFDYWGQGTTVTVSS VL: DIVLTQSPDSLAVSLGERATINCRASESVNNYGVGFLHWYQQKPGQPPKLLIYRASTLESGIPDRFSGSGSGTDFTLTISSLQAEDVAVYYCQHSYKDPPWTFGGGTKVEIKR	koff [21]: 6.58e-05 s⁻¹; kon [21]: 1.21e+06 M⁻¹ s⁻¹; IC50 [23]: 0.072 µg/mL
no binding (tested: 10 µg/mL)	no binding (tested: 10 µg/mL)	no binding (tested: 10 µg/mL)	no binding (tested: 10 µg/mL)	no binding (tested: 10 µg/mL)	no binding (tested: 10 µg/mL)	no binding (tested: 10 µg/mL)	no binding (tested: 10 µg/mL)	no binding (tested: 10 µg/mL)	1.87	0.0459	0.0453	0.0517	0.0671	0.0663	0.0469	0.0448	0.0468	0.0543	0.0433	fully human-derived antibody P2m (antibody, human IgG1, kappa, L234A L235A, V domains shown, Full chains) VH: QVQLVQSGAEVKKPGSSVKVSCKASGYTFTSYDISWVRQAPGQGLEWMGGIIPIFGTANYAQKFQGRVTITADESTSTAYMELSSLRSEDTAVYYCTAGIFLATAYWGQGTLVTVSS VL: DIQMTQSPSSMSASVGDRVTISCQASQDIQNYLNWYQQRPGQAPKLLIYDASTLETGVPSRFSGSGSGTYFTLTISSLQPEDVATYYCQQYENVPITFGQGTRLEIKR	koff [21]: 8.78e-05 s⁻¹; kon [21]: 2.03e+06 M⁻¹ s⁻¹; IC50 [24]: 0.033 µg/mL
